Data as given in PMC6174329, “Functional Characterization of Arabidopsis PHL4 in Plant Response to Phosphate Starvation”.

T1: MBP-PHL4-His (Arabidopsis thaliana? (Columbia-0?), UniProt Q8GXC2 1-397)
T1 sequence: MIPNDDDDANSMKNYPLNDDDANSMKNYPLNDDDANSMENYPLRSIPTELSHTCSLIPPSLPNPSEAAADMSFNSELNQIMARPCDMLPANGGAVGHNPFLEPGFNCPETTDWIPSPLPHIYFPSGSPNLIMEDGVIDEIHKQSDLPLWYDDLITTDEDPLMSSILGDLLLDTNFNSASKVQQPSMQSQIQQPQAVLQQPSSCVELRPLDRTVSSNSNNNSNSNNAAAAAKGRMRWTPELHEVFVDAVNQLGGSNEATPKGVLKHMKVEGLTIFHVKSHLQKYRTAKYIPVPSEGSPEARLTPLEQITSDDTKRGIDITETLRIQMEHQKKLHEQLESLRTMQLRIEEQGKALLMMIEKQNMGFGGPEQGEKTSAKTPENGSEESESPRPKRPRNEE

B1: 2xP1BS probe (dsDNA)
DNA 1: ATTAACGAATATTCCGTACAATTAACGAATATTCCGTACA
DNA 2: TGTACGGAATATTCGTTAATTGTACGGAATATTCGTTAAT
B2: 2xP1BS unlabeled competitor (dsDNA)
DNA 1: B1 DNA 1
DNA 2: B1 DNA 2

Tests used:
MBP-PHL4-His [1] = target: T1, MBP-PHL4-His; assay: EMSA; 4 ug protein, 10 fmol probe; EMSA as described by Sun et al. (2016); buffer, salt, pH and temperature not given; 4 ug MBP-PHL4, 10 fmol biotin probe; conditions: protein: recombinant; tags: N-terminal MBP; C-terminal 6xHis; chain copies: 2; label: biotin (on F strand); blunt
MBP-PHL4-His [2] = target: T1, MBP-PHL4-His; assay: competition; unlabeled probe at 200:1, 800:1 and 1200:1 molar excess over labeled probe; EMSA as described by Sun et al. (2016); buffer, salt, pH and temperature not given; 4 ug MBP-PHL4, 10 fmol biotin probe; conditions: protein: recombinant; tags: N-terminal MBP; C-terminal 6xHis; chain copies: 2; blunt

Row | Binder | binding result (MBP-PHL4-His [1]) | binding result (MBP-PHL4-His [2])
1 | B1 | binds | –
2 | B2 | – | binds
